The domain aggregation screens of Martell et al. (2025)

Experiment: soluble fraction after stress (log2 fold change); higher = more stays soluble; pooled small domains, quantitative proteomics
Settings: stress: 75 degC
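Note: 20 min heating vs room temperature control held 20 min.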

Row | Sequence | soluble fraction (log2)
1 | HMIMISKSFEINEDNINKRLDIFLTENLDGLSRGIVQKYISLEQITVNKESSHKDYRLKLDDFIEVKIQAH | -4
2 | HMIMNDIQAKVLEIAETKDLGSITYYRLSKMLGVDHPYRVKYAIDKLIEKGLLTAKSDGSITKAI | -1.47
3 | HMIMTTKVSGIMFDKFNPSAILNINGMDYLVRSGDIINGYKILSIGQETVTVQYGANVYKASVG | -4.48
4 | HMIMVAGHLQIKKGKYYMVLELKSESGERKTKWISTGLSAKGNKRKAEAMLEEARENYQSTDA | -1.13
5 | HMINIFKVKKAMEEIFASEWEDSPYTDQKISQILWSRGFSVSTGLVEKYRGQMGVPDANSRLNLN | -2.49
6 | HMINIGANIRAIRKQKNIKQVDLVRLLQLEGVEITRETLVKIESGVQHIKASQLRGIRDALGTTYDELL | -2.88
7 | HMINITALVKQLGGVDISKFNSAFKLLQQGKPLNTISNKVMADTFVALMKNSDEALNTKFRAAFKKI | -0.441
8 | HMINKIANLSAELRMEGLPVSIRSTQAAVKIYMDLGGDDRNLLKTALMSIYVKDRYDIPKFNKVFEKLFA | -1.66
9 | HMINKQPKDYEYFLEKWHFTQTEKHQLHNLILKLNIRYPNKDFLKITENLDNGKLVLKKLEERLSKT | -1.33
10 | HMINNINKLPETQFIKLFANIFENSQFIAVALYKKKGDGFSDFKDLINKIMDIFENTTKEKKLKILNA | -0.381
11 | HMINPASEKQLSFANSLIAKKEGGTETLNHYLHNRKVSSLEELDRKDVSEIINALKFAKEVT | 0.641
12 | HMINRPVYVPLYTNLDVKDAAEIAEKLEENNIAYKLEDQGETILVNPEQKYKVRLMLAQEGLPKG | 0.0786
13 | HMINSFDYLQAIFTELMKSQSKMTNQDAAKRLFMQGKVAVSNRDREGLRMVLAQLVTLLPKEELGGLSTVS | -1.38
14 | HMIPESVQGIEEFLATGALKGIGKKTAAAIVHKFGKDTLRIMEEEPERLAEVSGIGEKKAAAIGEAFALH | 0.134
15 | HMIPNPMTDRELEVLGLLASGKTYKQVARALDLSQSTVRNHLHNVYHKLNVVDRAQAVIVSRENGW | -0.379
16 | HMIPPGTITIEGAITKVPVFLDGKQIGTVPLTKEDVEPGKYRIRVLGVGRVITIDPGEKENVLFSGEDLGL | -0.0563
17 | HMIPTDPNGDLIKILYTSDQINELYARAKLNDVEDLFLDWTKNVLGESNFEETGPTKNEYLIPQ | -0.0775
18 | HMIPTTELAERLGTTKVANMIMLGALIKASGIISFDDMIKNLGELLGEGKAKLIKLNKEALEVGFN | 0.139
19 | HMIPYSDLLKLLSNDAMPKFRNKDGWAKIHALETYLASRWSYQEYGFASFTVLLETVHNAEIRNDSVRLM | -0.479
20 | HMIQTMVVTDLKNGTIFKENGHPFIVLKYEHIKVSRGSAQVRVKMKNLITGQVLEKSWQSTAHVDDT | -3.24
21 | HMIRMPNLIGLSVRSAEQQLVIAGLKKGIVHQVNDPRLKEVIDMQALGHKITAGSSIPKGTEVDLYIGNGT | -0.944
22 | HMISAVDLMAARRKIEAGITNLQPGQAFTLPNKVGWVKRMTGGSYFIQGNGGYTASVRTISEAIQAAAMLL | -3.11
23 | HMISDQENDLNLKHLFDTADQNKDGLILESELKMLMTNLEINKETYDTVMKQITPAGMDYKTFSSL | 0.293
24 | HMISFLNFVRKEIDASQLKDSTKQNHLTTIGLLQSFKPSIEFKDLNYNFITSFEKYLYDAGYQM | 0.0114
25 | HMISKQQRQALILDIIQKQSITSQEALLTELQRHHVMTTQTTVSRDIRALGIVRIKDVNGELSYQQLQ | -2.69
26 | HMISKRFQIDEDNSNKRIDIFLTQSLDSISRGIVQQLILENKVEVNGGPVKRNYLIKIGDVIDVKIDL | -2.96

Row | Sequence | soluble fraction (log2)
27 | HMISKTFEINEDNINNRLDIFLANQFDNLSRGIVQKLIESHSVSVSGNFVEKDYKLKLGDIIDVEINLS | -1.64
28 | HMISLNEDQKLAILNEWNQRPDDPPFIKELIELVFPDIPEEAKTGRSRYGIAIKKFLAEKSLQAKV | -0.197
29 | HMISLPSYIREEATEVYNRLHDLGLEYTSLDVNDDSIPKGYVVRTVPEAGASVPAGQVVTVYVSLG | -0.829
30 | HMISQLRGKVLGTDRDALVIDVGGVGFRVSATAGARALAGQSGNEARLFTEMVVREDSIDLFGF | 0.0812
31 | HMISRKIKELRLSHDLTQKDLADYLNLTPKMVSFYELGQRVPPSDIILKLAEKFHVSTDYLLGNEDRP | -0.196
32 | HMITDNEFLRIVSFLKQRYGIDMSQKKVIMNGRLENYLKSGGWSSFDEYMNDVEKDTSGDLEKTLVNFLTT | -1.38
33 | HMITETIGANIKTLRDKFRMSQQDLASKMNTARPVISNWENGKTEPSSSQLLKLAKIFDTSTDKILGNV | 0.0689
34 | HMITKEDVANKKVNLLFFGNFHKMKLPDFEWGITEMMQDRDYLYGSLTKDLYFLGLVLDRKYKI | 0.241
35 | HMITKENYLEKIKEIKVNEFPASMRELYDFFNEATRNGTDWSAYEEGNVKYVVDAYLERLNLLYKSN | -1.01
36 | HMITLYIHNLEEVGKRLDHYLVSNLDDHSRSQIQSWIRSGSILVNDRSVKTGYSLELNDQILINPPK | -2.51
37 | HMITNSTEIEAMIDSLIKENPEQAEQYRNGNTKVVGWFVGQMMKASKGKANPQVVGDLLAQKLVG | 0.0621
38 | HMIVAHEINRHLGESDQPVEIPDNRREGAVAELLKTFNNDDAFREMDDGKYEVALDGEKVREAARSLLA | 0.0479
39 | HMIVDARNREINLGSHVRYVDTGTVGEVTDSKVENDASWVKIDKTNLWYLANKLELLNDEDFKT | 0.0789
40 | HMIVDINDVRIDKYIADNTDYSRNLILNLIKNGDILVNDSKIKPSYKVKQGDKITINNVKTD | 0.332
41 | HMIVKQPDIRKQELLDIGVRLYFEAGEKGVSIQQVVKQAGVATGLFYYYFSSKDAFLDEALNDYID | 0.0613
42 | HMIVLPGEELEVHIVQEGKEDGQGVAYLDDGTMVVVEGGRPYVDSFAYVAVTRVLQTGAGRIIFAHPTR | -2.54
43 | HMIYNSGTTDSRGEAIVGGYLVTVTDTDTKDPVANAAVTLHKDNSISIRLPNSRLLDYADQTTVTVQLV | 0.0328
44 | HMKAEKEIEKIKFTIYNEFKRKQEENHFLPPWDGTKMLRQFVLGVVANNPKYQHVNTDILYRDLLLLYYQ | -2
45 | HMKAFTKKELQDLVLNIFRASPTTNYNYKQLYKLIRGKDPEIKTLIIAVLLGLEKNGSILQMRPGKYKFS | 0.97
46 | HMKALDTVLSEIPGLGPVRIKQLLKVFGSVDAIRKASLQDLQQIEGIGPKLAQTIYEYFHQP | 0.898
47 | HMKALYNLDYEKPLSGSYYTETTARAAVPTDIRKLGLIITYKTDATTNITEQFVGSSISAWTTSGNWKSLG | -1.77
48 | HMKAPPLTDREKEILRWVAAGLQNKEIAHKLGISLATVRNHIHNILEKLDVHSKLEAVSLAFRQGWVS | -0.356
49 | HMKASEMKKGQTIKIDGVLYVIVDFQHVKLSKGGAVYQTKLRNLAAGGIRDIRIRAEEVLEDA | -2.97
50 | HMKDITPASEDQLKAITDLMLKVNGEWSDAFFTFISKKFNHQISSPEQLTTFEANTIIDMLRKKAEG | -0.601
51 | HMKDLDSLSQEAKSVYAVFSDKPIHIDDIKRKTGLDFSKLFKAVTELELAELISSGEGKMYSL | -0.0075
52 | HMKDLTIRQQQFLNYIKDHLSLTGFPPTRSDIANEMGFKSPNAAEDHLRALARKGAIEIVPGTSRGIRLP | -0.419

Row | Sequence | soluble fraction (log2)
53 | HMKDMKISTKNLLQELAKNYPDQTSFRKNVIETTARAMGYTGKDFYPLLTTDNRVKIGTYDLATFLRSI | -0.969
54 | HMKDNPNETFERIAGKITRTLRSGPVRIQQLDLLFSESAGKVVDVLRAMAENGEVLIKDDTIQLNGNN | -0.0108
55 | HMKDTFHNLSEEKRERIIRAALGEFAASGYEKATLDGVVQAAGISKGGLYEYISSKEDLFRYLLEYSYD | -1.82
56 | HMKDTNENLMKMLALLIHAAKIDENYSDEEKELIVNFAEMSSKENLNREQILSIIKSAEEYE | -1.24
57 | HMKEADVRKNEILDAAGILFSEKGYDNTSVTDIMNAVGFAKGTLYHHFKSKEDIMDALIKRQTD | -0.125
58 | HMKEAISIYPNPVKDILTIRGMDETSGVSFKLYDVTGNLLLESTHSELDMSGLNRGVYFLDIAGDVRKVVK | -0.342
59 | HMKEEDLPREYTDILGNSVHERLNIMIHDIIEHSQDKPEVAMSPEREEAMHGLRRWMFDHVYH | -0.168
60 | HMKEEVEILGGKATIYTNDYGVWQFRLWLTTDNKYVRKSLRTKVKDYAITEGEKLYIQIRSDIEKGIKYY | -1.13
61 | HMKEEVSVPDIKGMTYEEAEAKLAKYDLEIEKGETVKASEQYEEGQISSQEPEAGSKVKEGSTIVVDVVE | 0.185
62 | HMKEFSFNGGKVIMNYEADRIQIKHDSRPNQEVITLMKRNGFKWSPTNQAWQRQITGNAIYVTKNLLKS | -2.33
63 | HMKEGGGYGQLRLKEAAIQHAFDLQNALQFIAERGYQAHENTTLKEAANALNLKPIELLELLKSSQ | 0.0627
64 | HMKEIDVPNVVGASENAARKLLESYGFQVEVQWENGERVDNAVVKSYSPNGSAKSGSTVTIVLGT | 0.0998
65 | HMKEINFTIEESAKGRLDKVIAENVADLTRSQVQSLIKKGQILVNDAPTTNRYQVKPNDQVIIKLPDPV | 0.396
66 | HMKEKLGEFENVFLSVDELQKLKSKLGAETESYIERLSNYIASSGKKYKSHYATILSWTQKDTK | -0.88
67 | HMKELASKYEISEYMKFLIENLDKSNFFYPIEKRESMINNIFSIYSKADLSKKELNMLWGMLKKLR | -2.31
68 | HMKELTELIEKIKLRRLELGLSYQELSDLTGINKSTLQRYETGFIKKVPINQVQIIAKALNVTPGYLMG | -0.72
69 | HMKEMTAKQIDMFSDKLSKLESFQSHYIADAGVSVTEYKQAIAAKLQDQFYVEAWGKYLADVGFT | -0.393
70 | HMKEPIYQTILSALILELNTNHFRKNDPFYSESELRKKYQVSSTTVVRVLNMLADQGYIYRIQGKGSFVSK | -2.62
71 | HMKESFAQLFSLLTPTEQKVAALISQGFSNKDIAAKMFISLSTVKTHTNHIFAKMGVANRNALVAKVNN | -1.46
72 | HMKESRFDYDAVLLYSDKDSITEVKDAVQHLTKEFGSVFTTKKIPEKATFGKLFRIEKGEVNIIEDN | 0.367
73 | HMKESRLFRILYYLLQHKKATAPELAEEFEVSVRTIYRDIDYISSAGVPIYATQGKDGGIAILDSF | -0.777
74 | HMKETLSINSTDFEVRRSSRRKRISVGFDTGTETFFIAAPTKLAGTDILRILGPQISRLMDRLT | -2.22
75 | HMKEVDERPWGKYEVLLDAPDVKVKRITVNPGQRLSYQYHEKRAEVWTVVSGILTIILEDDKLFRG | 0.17
76 | HMKFIPPSLEEARAYFVEKGSSEPEAEKFVNHFDSIGWKVGRARTPMKKWKSAANNWIANNREWNQ | -0.543
77 | HMKFKDYYAALGIDRNADLEQIKKAYRKLARQYHPDVSKAPDAEARFKDAAEAYATLKNPEKRAAYDELGS | 0.0895
